B1: HOIP extended PUB domain (aa 1–184) [not stated] / FITC-Ahx-labeled OTULIN PIM peptide (aa 49–67) [modified: FITC-Ahx label; FITC-Ahx label] [not stated] (parent complex)
chain 1: MPGEEEERAFLVAREELASALRRDSGQAFSLEQLRPLLASSLPLAARYLQLDAARLVRCNAHGEPRNYLNTLSTALNILEKYGRNLLSPQRPRYWRGVKFNNPVFRSTVDAVQGGRDVLRLYGYTEEQPDGLSFPEGQEEPDEHQVATVTLEVLLLRTELSLLLQNTHPRQQALEQLLEDKVED
chain 2: AEHEEDMYRAADEIEKEKE

This passage reports Kd results from PMC4017264 (Molecular Cell, 2014).

By Kd is commonly meant the free concentration of one partner at which half of the binding sites on the other are occupied at equilibrium, for simple one-to-one binding.

One assay covers variants of B1. The assay is described as follows: fluorescence polarisation; triplicate. On the technique in general: In fluorescence polarisation assays a small probe gives low polarisation when free and higher when bound to something large.
For chain 1 V104A, the equilibrium dissociation constant (Kd) was 2.03 µM.

The variants in the next assay derive from B1. Kind of assay: fluorescence polarisation; triplicate. This is another data set of the same source.
With chain 2 D6A, the dissociation constant Kd was 11.2 µM. As to chain 2 Y8F, the equilibrium dissociation constant (Kd) came out at 64.5 µM.

For chain 2 Y8W, the Kd was 21.3 µM.
